Results published in US20220273573A1, “SOLID DISPERSION GENISTEIN COMPOSITIONS AND METHODS OF MAKING AND USING THE SAME” (priority 2020, published 2022).

Test system: mice exposed to bilateral whole-body irradiation
Experiment: Prophylactic efficacy, 180-day survival after whole-body irradiation
Type: in vivo
Details: single subcutaneous injection 0.3 mg/kg 24 hours after 9.2 Gy whole-body irradiation
Method: In another study, selected samples of Example 3 were each orally administered at 200 mg Genistein/kg twice per day to groups of mice for 6 consecutive days. A separate vehicle control and genistein group was included for each sample formulation. The mice were then exposed to bilateral whole-body irradiation at a dose of 9.2 Gy at 0.6 Gy/min and the 180-day survival rate was observed. As additional controls, an injectable suspension (200 mg Genistein/kg) and corresponding vehicle were also administered to groups of mice via intramuscular injection 24 hours prior to exposure to bilateral whole-body irradiation at a dose of 9.2 Gy at 0.6 Gy/min. A separate group of mice was also administered a single subcutaneous injection of Neulasta® (0.3 mg/kg), an FDA-approved radiation treatment drug, 24 hours after exposure to bilateral whole-body irradiation at a dose of 9.2 Gy at 0.6 Gy/min. The results of this study are shown in Table 5 as percentage of surviving animals, and the number of surviving animals compared to the total number of animals in the study and depicted in FIG. 3.

B1: Neulasta ®: an FDA-approved radiation treatment drug, single subcutaneous injection (protein, UniProt P09919 31-207, looked up)
Granulocyte …: TPLGPASSLPQSFLLKCLEQVRKIQGDGAALQEKLVSECATYKLCHPEELVLLGHSLGIPWAPLSSCPSQALQLAGCLSQLHSGLFLYQGLLQALEGISPELGPTLDTLQLDVADFATTIWQQMEELGMAPALQPTQGAMPAFASAFQRRAGGVLVASHLQSFLEVSYRVLRHLAQP
modifications: pegfilgrastim; PEG, N-terminal Met
notes: an FDA-approved radiation treatment drug, single subcutaneous injection
180-Day Survival: 56% (9/16)
